Paper PMC6559209

Molecular target: YlHD, hydrophilic domain of the Yarrowia lipolytica group 3 LEA protein (Yarrowia lipolytica)
Experiment: MST; HD labelled with RED-NHS at 2 uM; label-free LDH titrated, diluted from 71 uM; binding buffer 20 mM HEPES, 150 mM KCl, pH 7.4 (the legend says phosphate buffer); normal conditions; Monolith NT.115, 20% LED, 60% MST power

Which Kd does the source give for lactate dehydrogenase (LDH) (enzyme) here?
Its Kd is 5.03 µM.
